According to article PMC12805100 (2025):

B1: 3xFLAG-WT hTRPA1 [human] / CaM-agarose resin (calmodulin coupled to agarose) [not stated] (parent complex)
chain 1: MKRSLRKMWRPGEKKEPQGVVYEDVPDDTEDFKESLKVVFEGSAYGLQNFNKQKKLKRCDDMDTFFLHYAAAEGQIELMEKITRDSSLEVLHEMDDYGNTPLHCAVEKNQIESVKFLLSRGANPNLRNFNMMAPLHIAVQGMNNEVMKVLLEHRTIDVNLEGENGNTAVIIACTTNNSEALQILLKKGAKPCKSNKWGCFPIHQAAFSGSKECMEIILRFGEEHGYSRQLHINFMNNGKATPLHLAVQNGDLEMIKMCLDNGAQIDPVEKGRCTAIHFAATQGATEIVKLMISSYSGSVDIVNTTDGCHETMLHRASLFDHHELADYLISVGADINKIDSEGRSPLILATASASWNIVNLLLSKGAQVDIKDNFGRNFLHLTVQQPYGLKNLRPEFMQMQQIKELVMDEDNDGCTPLHYACRQGGPGSVNNLLGFNVSIHSKSKDKKSPLHFAASYGRINTCQRLLQDISDTRLLNEGDLHGMTPLHLAAKNGHDKVVQLLLKKGALFLSDHNGWTALHHASMGGYTQTMKVILDTNLKCTDRLDEDGNTALHFAAREGHAKAVALLLSHNADIVLNKQQASFLHLALHNKRKEVVLTIIRSKRWDECLKIFSHNSPGNKCPITEMIEYLPECMKVLLDFCMLHSTEDKSCRDYYIEYNFKYLQCPLEFTKKTPTQDVIYEPLTALNAMVQNNRIELLNHPVCKEYLLMKWLAYGFRAHMMNLGSYCLGLIPMTILVVNIKPGMAFNSTGIINETSDHSEILDTTNSYLIKTCMILVFLSSIFGYCKEAGQIFQQKRNYFMDISNVLEWIIYTTGIIFVLPLFVEIPAHLQWQCGAIAVYFYWMNFLLYLQRFENCGIFIVMLEVILKTLLRSTVVFIFLLLAFGLSFYILLNLQDPFSSPLLSIIQTFSMMLGDINYRESFLEPYLRNELAHPVLSFAQLVSFTIFVPIVLMNLLIGLAVGDIAEVQKHASLKRIAMQVELHTSLEKKLPLWFLRKVDQKSTIVYPNKPRSGGMLFHIFCFLFCTGEIRQEIPNADKSLEMEILKQKYRLKDLTFLLEKQHELIKLIIQKMEIISETEDDDSHCSFQDRFKKEQMEQRNSRWNTVLRAVKAKTHHLEP
chain 2: not shown

Variants of: B1
Assay: CaM-agarose pulldown, quantified immunoblot; 2 mM Ca2+; lysates of HEK293T cells; n = 3; read off a plot

Variant	response
chain 1 W1103A	~0.36 normalized pulldown (relative to WT hTRPA1 0.1 μM Ca2+ average)
chain 1 K989S, chain 1 R996S, chain 1 K997S, chain 1 K1001S, chain 1 W1103A	~0.05 normalized pulldown (relative to WT hTRPA1 0.1 μM Ca2+ average)
